Reference: the RNAGym collection of RNA variant scans (doi:10.7554/elife.80360)

B1: CPEB3 Ribozyme (parent)
chain: GGGGGCCACAGCAGAAGCGUUCACGUCGCGGCCCCUGUCAGAUUCUGGUGAAUCUGCGAAUUCUGCUGU

Variants of: B1
Test: self-cleavage, relative activity (ratio to wild type); higher = more cleavage; co-transcriptional

Point of comparison: A10U A23U, self-cleavage 1. Against it:
- A10C A23U — lower, 0.983
- A10U A23C — lower, 0.968
- A10U A23G — lower, 0.983
- A10C A52G — lower, 0.988
- A10C U21A — lower, 0.959
- A10C A40U — lower, 0.867
- A10C A40C — lower, 0.378
- A10C G50A — lower, 0.971
- A10C A42U — lower, 0.921
- A10U C27G — lower, 0.17
- C9U U55C — higher, 1.02
- C9U U55A — lower, 0.932
- C9U U55G — lower, 0.953
- A10G C54A — lower, 0.527
- A10G C54U — lower, 0.8
- A10G C54G — lower, 0.404
- A10C C57A — lower, 0.351
- A10C C57U — lower, 0.275
- A10C C57G — lower, 0.292
- A10G G25C — lower, 0.125
- A10C C35U — lower, 0.992
- A10C C35A — lower, 0.325
- A10C C35G — lower, 0.631
- C9U U46C — higher, 1.02
- C9U U46A — lower, 0.964
- C9U U46G — higher, 1.04
- C9U G25U — lower, 0.192
- C9U G25C — lower, 0.146
- A10C U69G — higher, 1.05
- A10C U69C — higher, 1.05
- A10C U69A — higher, 1.06
- C9U G58C — higher, 1.02
- A10G C34A — lower, 0.89
- A10G C34G — lower, 0.82
- A10C U64G — lower, 0.804
- A10G G56U — lower, 0.567
- A10G G56C — lower, 0.473
- A10G G56A — lower, 0.784
- A10G G41U — lower, 0.466
- A10C G11U — lower, 0.913
- A10C G11A — lower, 0.887
- C9U U26C — lower, 0.999
- A10G C33A — lower, 0.926
- A10C G37U — lower, 0.244
- A10C G37C — lower, 0.23
- A10C C34A — lower, 0.981
- A10C C34U — lower, 0.986
- A10G C32G — lower, 0.762
- C9U G68A — higher, 1.05
- C9U G68U — higher, 1.02
- A10C U44A — lower, 0.959
- A10C U44C — lower, 0.92
- A10G C63G — lower, 0.338
- A10G C63U — lower, 0.615
- A10G C63A — lower, 0.253
- A10G U43A — lower, 0.455
- A10G U43G — lower, 0.344
- A10G U43C — lower, 0.651
- A10U A40U — lower, 0.911
- A10U A40C — lower, 0.516
- C9U G56A — lower, 0.992
- C9U G56C — lower, 0.959
- A10U C39G — lower, 0.913
- A10U C39U — lower, 0.984
- A10U C39A — lower, 0.84
- A10U C33A — lower, 0.977
- A10U C33U — lower, 0.971
- A10U C33G — lower, 0.922
- A10C U20A — lower, 0.205
- A10C U20C — lower, 0.286
- A10C U20G — lower, 0.0821
- C9U G48A — higher, 1.03
- C9U G48U — higher, 1.03
- A10U — the same, 1
- A10C — higher, 1.01
- A10G — lower, 0.94
- A10C U49A — higher, 1.02
- A10C U49C — higher, 1.04
- A10U A59U — lower, 0.879
- A10U A59C — lower, 0.778
- C9U U62G — lower, 0.987
- A10C C39G — lower, 0.987
- A10C C39A — lower, 0.861
- A10U C29G — lower, 0.431
- A10U C29U — lower, 0.361
- C9U U36G — lower, 0.214
- A10G U21C — lower, 0.619
- A10G U21A — lower, 0.83
- A10G U21G — lower, 0.39
- A10U C45A — lower, 0.998
- A10G G19A — lower, 0.157
- A10G G19C — lower, 0.104
- A10G G19U — lower, 0.162
- A10U C12G — lower, 0.859
- A10U C34A — lower, 0.983
- A10U C34G — higher, 1.01
- A10G A16G — lower, 0.894
- A10G A16C — lower, 0.145
- A10G A16U — lower, 0.452
- A10U A16C — lower, 0.281
- A10C U46A — higher, 1.03
- A10C U46G — lower, 0.953
- A10C G58C — lower, 0.965
- A10C G58U — lower, 0.999
- A10G G47A — lower, 0.986
- A10G G47C — lower, 0.927
- A10G A59C — lower, 0.517
- A10G A59U — lower, 0.647
- C9U G47A — higher, 1.06
- A10C A59U — lower, 0.82
- A10C G48A — higher, 1.02
- A10G U67A — lower, 0.847
- A10G U67G — lower, 0.757
- C9U U43C — higher, 1.02
- C9U U43A — lower, 0.971
- A10C C45A — lower, 0.97
- A10C C45U — the same, 1
- A10C C29A — lower, 0.596
- A10C C29G — lower, 0.165
- C9U U20C — lower, 0.186
- C9U U20A — lower, 0.148
- A10U A52C — the same, 1
- A10U A52G — higher, 1.03
- A10C G31U — lower, 0.913
- A10C G31A — lower, 0.968
- A10G G17A — lower, 0.132
- A10G G17U — lower, 0.106
- A10G A42G — lower, 0.636
- A10G A42U — lower, 0.78
- C9U G50U — the same, 1
- C9U G50C — higher, 1.02
- C9U U38G — lower, 0.306
- C9U U38A — lower, 0.931
- C9U U38C — higher, 1.02
- A10C C32A — lower, 0.908
- A10C C32U — higher, 1.04
- A10G G31A — lower, 0.953
- A10G G31U — lower, 0.868
- A10C U38C — the same, 1
- A10C C24U — lower, 0.891
- A10C C24A — lower, 0.738
- A10C G30C — lower, 0.923
- A10C G30A — lower, 0.994
- A10C G30U — lower, 0.753
- A10G C39U — lower, 0.633
- A10G C39G — lower, 0.595
- A10G C39A — lower, 0.42
- A10G A51U — lower, 0.825
- A10G A51G — lower, 0.857
- A10G A51C — lower, 0.73
- A10C U62G — lower, 0.772
- A10C U62C — lower, 0.72
- A10G U53G — lower, 0.646
- A10G A15C — lower, 0.254
- A10G A15U — lower, 0.253
- A10G A15G — lower, 0.786
- A10G G30C — lower, 0.94
- A10G U69C — higher, 1.06
- A10G U69G — lower, 0.978
- A10G U69A — lower, 0.981
- A10C U53A — lower, 0.976
- A10C U53C — lower, 0.863
- C9U U49C — higher, 1.01
- C9U U49G — lower, 0.957
- C9U U49A — lower, 0.99
- A10U A51C — lower, 0.962
